From the supplement of paper PMC10567573

B1: TRIM29 (parent)
chain: FAEKGELRKSIFSESRKPTVSIME
B2: DLC1 (parent)
chain: NDDSADYQHFLQDCVDGLFKEVKE

Variants of: B1
Test: protein stability index of a GFP-peptide fusion (GPS, HEK-293T) (PSI 1-6); higher = more stable
Settings: c terminus: a fixed tail appended
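Also: lentivirally expressed fusions sorted by FACS into six bins by GFP to DsRed ratio, PSI derived from sequencing read proportions per bin multiplied by bin number.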

Row | Variant | protein stability index
1 | S15L | 1.96
2 | V20R | 1.68
3 | V20Y | 1.67
4 | V20M | 1.92
5 | G5H | 2.3
6 | G5S | 2.11
7 | G5Y | 2.53
8 | M23L | 1.71
9 | M23S | 1.58
10 | M23F | 1.6
11 | M23W | 2.21
12 | M23Q | 2.47
13 | M23G | 1.57
14 | F1E | 4.13
15 | F1Y | 1.45
16 | E6I | 1.82
17 | E6Y | 1.84
18 | E6N | 1.36
19 | T19N | 1.72
20 | T19A | 3
21 | S13W | 2.55

Row | Variant | protein stability index
22 | S13I | 1.45
23 | P18D | 2.32
24 | P18H | 1.94
25 | E3S | 3.11
26 | E3T | 2.59
27 | E3F | 1.42
28 | E3K | 2.29
29 | K9S | 1.88
30 | K9Q | 1.8
31 | E14G | 1.78
32 | S10G | 2
33 | S10M | 2.12
34 | S10V | 2.46
35 | S10H | 1.84
36 | L7N | 1.55
37 | L7E | 3.15
38 | L7V | 1.62
39 | L7R | 1.82
40 | S21E | 1.76
41 | S21G | 1.95
42 | I11L | 1.9

Row | Variant | protein stability index
43 | I11M | 1.53
44 | I22M | 1.49
45 | I22Y | 1.38
46 | K17Y | 2.23
47 | K17G | 1.99
48 | K17C | 1.28
49 | F12Q | 3.72
50 | F12H | 4.04
51 | F12I | 3.39
52 | A2G | 2.06
53 | A2S | 2.53
54 | R8S | 1.47
55 | R8H | 1.54
56 | R8M | 1.81
57 | R8E | 2
58 | E24K | 1.76
59 | K4W | 3.24
60 | K4L | 2.38
61 | R16C | 1.69
62 | R16T | 1.6

Variants of: B2
Test: as above
Settings: c terminus: a fixed tail appended

Row | Variant | protein stability index
63 | D13C | 2.09
64 | D13M | 2.34
65 | D13F | 1.86
66 | D13Q | 2.24
67 | D13T | 2.16
68 | D13V | 1.56
69 | D13R | 2.02
70 | D13L | 1.76
71 | D13H | 1.51
72 | D13I | 1.84
73 | D13Y | 2.14
74 | D13G | 2.42
75 | D13P | 2.27
76 | D13S | 2.2
77 | D13N | 2.38
78 | D13K | 2.05
79 | D13E | 2.66
80 | D13A | 1.79
81 | V15F | 3.85
82 | V15H | 4.94
83 | V15E | 4.9
84 | V15A | 4.04
85 | V15N | 4.78
86 | V15D | 4.8
87 | V15K | 4.71

Row | Variant | protein stability index
88 | V15W | 3.8
89 | V15G | 5.45
90 | V15P | 4.6
91 | V15L | 3.34
92 | V15T | 5.09
93 | V15S | 4.71
94 | V15M | 4.34
95 | V15R | 4.73
96 | V15C | 4.79
97 | V15Q | 4.74
98 | V15I | 2.68
99 | V15Y | 3.61
100 | Q12V | 3.33
101 | Q12W | 1.79
102 | Q12P | 4.15
103 | Q12I | 3
104 | Q12L | 3.31
105 | Q12T | 4.32
106 | Q12C | 3.91
107 | Q12S | 3.3
108 | Q12R | 2.42
109 | Q12K | 2.33
110 | Q12H | 3.17
111 | Q12G | 4.34
112 | Q12M | 3.73

Row | Variant | protein stability index
113 | Q12Y | 3.71
114 | Q12N | 4.24
115 | Q12E | 4.75
116 | Q12D | 4.83
117 | Q12F | 3.48
118 | D6I | 2.32
119 | D6L | 2.03
120 | D6A | 2.32
121 | D6Y | 2.94
122 | D6S | 3.44
123 | D6W | 2.52
124 | D6Q | 3.12
125 | D6V | 2.24
126 | D6T | 2.5
127 | D6E | 3.29
128 | D6M | 2.63
129 | D6N | 2.4
130 | D6C | 2.8
131 | D6P | 3.38
132 | D6G | 3.62
133 | D6R | 2.94
134 | D6H | 3.3
135 | D6K | 3
136 | D6F | 2.81
137 | L11S | 5.1

Row | Variant | protein stability index
138 | L11T | 4.94
139 | L11I | 3.54
140 | L11W | 3.78
141 | L11K | 5.08
142 | L11A | 5.62
143 | L11Q | 5.4
144 | L11Y | 4.47
145 | L11P | 4.51
146 | L11M | 3.29
147 | L11G | 5.35
148 | L11R | 5.35
149 | L11E | 5.25
150 | L11V | 4.18
151 | L11C | 3.07
152 | L11H | 5.08
153 | L11N | 4.76
154 | L11D | 5.47
155 | Q8F | 2.65
156 | Q8I | 2.26
157 | Q8D | 2.96
158 | Q8P | 2.64
159 | Q8M | 1.43
160 | Q8Y | 1.56
161 | Q8V | 2.93
162 | Q8K | 2.1

Row | Variant | protein stability index
163 | Q8T | 2.44
164 | Q8H | 2.36
165 | Q8A | 2.4
166 | Q8R | 2.08
167 | Q8W | 3.5
168 | Q8N | 3.03
169 | Q8G | 2.75
170 | Q8L | 1.77
171 | Q8E | 2.62
172 | Q8S | 2.88
173 | Q8C | 1.69
174 | N1R | 2.53
175 | N1Q | 2.69
176 | N1H | 2.29
177 | N1G | 1.9
178 | N1I | 1.59
179 | N1K | 3.44
180 | N1E | 3
181 | N1T | 2.6
182 | N1Y | 2.73
183 | N1D | 1.72
184 | N1C | 2.24
185 | N1V | 1.56
186 | N1S | 2.6
187 | N1F | 1.5

Row | Variant | protein stability index
188 | N1M | 1.79
189 | N1W | 1.28
190 | S4K | 1.36
191 | S4W | 2.26
192 | S4I | 2
193 | S4H | 2.65
194 | S4N | 2.57
195 | S4F | 2.26
196 | S4E | 1.63
197 | S4D | 2.9
198 | S4Y | 2.22
199 | S4C | 1.56
200 | S4V | 2.57
201 | S4M | 2.05
202 | S4L | 2.91
203 | S4R | 2.41
204 | S4P | 2.34
205 | S4A | 2.35
206 | S4G | 3.56
207 | D16C | 2.29
208 | D16E | 2.08
209 | D16A | 2.08
210 | A5M | 2.15
211 | A5N | 2.9
212 | A5F | 1.68

Row | Variant | protein stability index
213 | A5C | 2.05
214 | A5E | 2.92
215 | A5H | 2.55
216 | A5S | 1.91
217 | A5I | 2.05
218 | A5P | 2.4
219 | A5Y | 2.17
220 | A5Q | 2.55
221 | A5L | 2.73
222 | A5R | 2.49
223 | A5T | 2.46
224 | A5W | 2.1
225 | A5D | 2.42
226 | A5V | 2.02
227 | A5G | 2.4
228 | A5K | 2.93
229 | D2K | 2.11
230 | D2N | 2.27
231 | D2A | 2.17
232 | D2F | 2.47
233 | D2V | 1.96
234 | D2L | 2.37
235 | D2T | 2.65
236 | D2Y | 1.2
237 | D2W | 2.15

Row | Variant | protein stability index
238 | D2G | 4.54
239 | D2I | 2.18
240 | D2M | 2.48
241 | D2C | 2.14
242 | D2H | 2.66
243 | D2Q | 2.91
244 | D3A | 2.77
245 | D3R | 1.79
246 | D3F | 3.3
247 | D3G | 2.23
248 | D3I | 2.19
249 | D3E | 3.85
250 | D3V | 3.69
251 | D3T | 2.2
252 | D3S | 2.4
253 | D3N | 3.02
254 | D3C | 1.71
255 | D3Y | 2.24
256 | D3M | 2.26
257 | D3P | 2.65
258 | D3W | 1.71
259 | D3H | 2.17
260 | C14T | 4.12
261 | C14G | 4.86
262 | C14P | 5.07

Row | Variant | protein stability index
263 | C14H | 5.11
264 | C14Y | 2.54
265 | C14K | 4.78
266 | C14L | 1.97
267 | C14F | 2.49
268 | C14R | 4.87
269 | C14A | 2.33
270 | C14Q | 4.71
271 | C14E | 5.38
272 | C14W | 4.31
273 | C14V | 3.21
274 | C14N | 5.34
275 | C14I | 2.41
276 | C14M | 3.63
277 | C14S | 4.91
278 | C14D | 5.03
279 | F10L | 1.62
280 | F10C | 2.66
281 | F10Q | 3.16
282 | F10M | 2.34
283 | F10Y | 2.75
284 | F10P | 4.36
285 | F10G | 4.53
286 | F10R | 3.96
287 | F10H | 4.34

Row | Variant | protein stability index
288 | F10T | 2.47
289 | F10N | 4.56
290 | F10I | 1.78
291 | F10S | 3.92
292 | F10W | 1.98
293 | F10A | 2.08
294 | F10V | 1.42
295 | F10D | 5.1
296 | F10E | 3.75
297 | F10K | 3.6
298 | Y7N | 5.14
299 | Y7F | 2.05
300 | Y7K | 4.33
301 | Y7G | 4.01
302 | Y7R | 4.1
303 | Y7M | 2.08
304 | Y7D | 4.17
305 | Y7Q | 4.52
306 | Y7C | 2.55
307 | Y7A | 3.78
308 | Y7V | 3
309 | Y7L | 3.03
310 | Y7E | 4.11
311 | Y7S | 3.89
312 | Y7P | 4.62

Row | Variant | protein stability index
313 | Y7T | 3.31
314 | Y7I | 1.75
315 | Y7H | 4.36
316 | H9E | 3.47
317 | H9A | 3.13
318 | H9K | 2.63
319 | H9Q | 2.23
320 | H9S | 3.43
321 | H9C | 2.53
322 | H9R | 2.86
323 | H9W | 3.03
324 | H9N | 3.02
325 | H9P | 3.71
326 | H9I | 2.48
327 | H9L | 2.21
328 | H9Y | 2.24
329 | H9V | 1.92
330 | H9F | 2.32
331 | H9M | 2.74
332 | H9D | 2.83
333 | H9G | 2.62
334 | H9T | 2.25
